Source: patent US20150104459A1
Changes are numbered by the printed parent chain.

B1: 3260_D19 (antibody, V domains shown)
VH: DMQLVESGGGLVPPGGSLRLSCAASGFSVSDNYINWVRQAPGKGLDWVSVFYSADRTSYADSVKGRFTVSSHDSKNTVYLQMNSLRAEDTAVYYCARVQKSYYGMDVWGQGTTVTVSS
VL: GIQMTQSPSSLSASVGDRVTITCRASQSISRYLNWYLQKPGKAPKLLISGASSLQSGVPSRFSGTGSGTEFTLTISSLQPEDFATYYCQQTFSIPLFGQGTKVEIK
B2: 3242_P05 (antibody, V domains shown)
VH: B1 VH
VL: B1 VL
B3: 3252_C13 (antibody, V domains shown)
VH: QVQLQESGPGLVKPSETLSLTCTVSGASISSDYWSWIRLPPGKGLEWIGYIYNRGSTKYTPSLKSRVTISLDTAENQFSLRLRSVTAADTAIYYCARHVGGHTYGIDYWGQGTLVTVSS
VL: DIQMTQSPSSLSASVGDRVTITCRASQSISNYLNWYQHKPGEAPKLLNYAASSLQSGVPSRFSASGSGTDFTLTISSLQPEDFATYYCQQSYNTPITFGQGTRLEIK
B4: 3255_J06 (antibody, V domains shown)
VH: B3 VH with I92V
VL: B3 VL with T74S, S77G, Q100P
B5: 3362_B11 (antibody, V domains shown)
VH: QVQLQASGPGLVKPSETLSLTCTVSGDSITSGAYYWTWIRQHPGKGLEWIGYIYYSGNTYYNPSLKSRVTISLDTSKNQFSLKVNSVTAADTAVYYCARAASTSVLGYGMDVWGQGTTVTVSS
VL: B3 VL with N31R, H38Q, K39E, E42K, N48V, A64G, N93S, I96L
B6: 3420_I23 (antibody, V domains shown)
VH: QVQLQESGPGLVKPSETLSVTCKVSGDSISSYSWSWIRQPPGKGLEWVGYLYYSGSTKYNPSLKSRTTISVDTSTNQLSLKLSFVTAADTAVYFCARTGSESTTGYGMDVWGQGTTVTVSS
VL: B3 VL with N31T, H38Q, E42K, N48I, Q55H, A64G, T72A, N93S, T94P
B7: 3136_G05 (antibody, V domains shown)
VH: QVQLQESGPGLVKPSETLSLTCSVSGGSISSDFWSWIRQPPGKGLEWIGYVYNRGSTKYSPSLKSRVTISADMSKNQFSLNMSSVTAADTAVYYCAKNGRSSTSWGIDVWGKGTTVTVSS
VL: DIQMTQSPSSLSASVGDRLTITCRASQSISTYLHWYQQKPGKAPKLLIYAASSLQSGVPSRFSGSRSGTDFTLTISSLQPDDFATYYCQQSYSPPLTFGPGTKVDMK
B8: 3244_I10 (antibody, V domains shown)
VH: QVQLQESGPGLLKPSDTLALTCTVSGGSITSDYWSWIRQPPGRGLDWIGFFYNGGSTKYNPSLKSRVTISADTSKNQLSLKLTSVTAADTGVYYCARHDAKFSGSYYVASWGQGTRVTVSS
VL: DIQMTQSPSSLSASVGDRVTISCRASQSISTYLNWYQQQPGKAPKVLIFGATNLQSGVPSRFSGSGSGTDFTLTISSLQPEDFATYYCQQSYNTPLIFGQGTKLEIK
B9: 3253_P10 (antibody, V domains shown)
VH: B8 VH
VL: B8 VL with F49S, N53D
B10: 3243_J07 (antibody, V domains shown)
VH: B8 VH with A100V
VL: B8 VL with F49S
B11: 3248_P18 (antibody, V domains shown)
VH: QVQLQESGPGLVKPSETLSLTCTVSGGSISAYHWSWIRQPPGKGLEWIGHIFDSGSTYYNPSLKSRVTISLDASKNQLSLRLTSVTASDTAIYYCARPLGSRYYYGMDVWGQGTTVTVSS
VL: DIQMTQSPSSLSASVGDRVTITCRASQSISRYLNWYQQKPGKAPKLLIYGASTLQNGAPSRFSGSGSGTDFTLTISSLQPEDSATYLCQQSYSVPAFGGGTKVEVK
B12: 3245_O19 (antibody, V domains shown)
VH: EVQLVESGGGLVQPGGSLRLSCTASGLSVSSTYMNWVRQAPGKGLEWVSVFYSETRTYYADSVKGRFTVSRHNSNNTLYLQMNSLRVEDTAVYYCARVQRLSYGMDVWGQGTTVTVSS
VL: DIQMTQSPSSLSASVGDRVTITCRASQSISTYLNWYQKRPGKAPKLLVYGASTLQSGVPSRFSGSGSGTDFTLTIASLQPEDSATYYCQQTYSIPLFGQGTRLEIK
B13: 3244_H04 (antibody, V domains shown)
VH: B12 VH with V87A
VL: B12 VL with T53S, T85V
B14: 3259_J21 (antibody, V domains shown)
VH: QVQLQESGPRVVRPSETLSLTCTVSGGSISSYNWIWIRQPPGKGLEWIGHIYDYGRTFYNSSLQSRPTISVDASKNQLSLRLTSVTASDTAVYYCARPLGILHYYAMDLWGQGTTVTVSS
VL: DIQMTQSPLSVSVSVGDRVTIACRASQSIDKFLNWYQQKPGKAPKLLIYGASNLHSGAPSRFSASGSGTDFTLTITNIQTEDFATYLCQQSFSVPAFGGGTKVEIK
B15: 3241_G23 (antibody, V domains shown)
VH: QVQLQQSGPGLVKPSQTLSLTCTVSGGPVSGGGYSWNWIRQRPGQGLEWVGFMFHSGSPRYNPTLKSRITISVDTSKNLVSLKLSSVTAADTAVYFCARVGQMDKYYAMDVWGQGTTVTVSS
VL: DIQMTQSPSSLSSSVGDRVTITCRASQSIGAYVNWYQQKAGKAPQVLIFGASNLQSGVPSRFSGSGSGTDFTLTISSLQPEDFATYFCQQTYSTPITFGQGTRLEIK
B16: 3139_P23 (antibody, V domains shown)
VH: QVQLQESGPRLVKPSESLSLTCTVSGGSISNSFWGWIRQPPGEGLEWIGYVYNSGNTKYNPSLKSRVTISRDTSKSQLYMKLRSVTAADTAVYYCARHDDASHGYSISWGHGTLVTVSS
VL: DIQMTQSPSSLSASVGDRVTITCRASQTISTYLNWYQQKSGKAPKLLIYAASGLQSGVPSRFSGSGSGTDFTLTISSLQPEDFATYFCQQSYNTPLTFGQGTKVEIK
B17: TCN-549 (5092_P04) (antibody, V domains shown)
VH: QVQLVQSGAEVKKPGASVKVSCKASGYTFTGYYMHWVRQAPGQGLEWMGWINPNSGDTNYAQKFQGRVTMTRDTSITTAYMELSSLRSDDTAVYYCARDSPYSSSWSFFDYWGQGPLVTVSS
VL: not shown
B18: TCN-548 (5092_P01) (antibody, V domains shown)
VH: QVQLQESGPGLVKPSETLSLTCTVSSGPMSDYYWSWIRQPPGKGLEWIGHVSVSHGGRTKSNPSVMSRVTISVETSKNQFSLKLTSVTAADTAVYYCARLNYYDRSGYHSPDGPSNNWFDPWGQGTLVTVSS
VL: not shown
B19: TCN-544 (5082_A19) (antibody, V domains shown)
VH: QVQLQESGPGLVKPSETLSLTCTVSRGSIGHYFWSWIRQPPGKGLEWIGYISYSGSTKYNPSLRSRVTISVDTSKNQFSLNLNSVTATDTALYYCAREDYDILTGAGPGMEVWGQGTTVTVSS
VL: QSMLTQPPSASGTPGQRVTISCSGSSSNIGSNTVNWFKHLPGTAPKLLIYRNDLRPSGVPDRFSGSKSGTSASLAISGLQSEDEADYYCATWDDSLNGFYVFGTGTKVTVL

molecular target: M2 protein of influenza A/Hong Kong/483/97 (H5N1) (influenza A virus A/Hong Kong/483/97 (H5N1)); experiment: not given; settings: not given
For FACS M2-HK MFI in this document: test concentration or dose not given here.

Going from B1 to B2, the FACS M2-HK MFI falls from 846 MFI to 596 MFI.

Compared with B3, B4 is lower in FACS M2-HK MFI: 449 MFI for the first, 442 MFI for the second.

Going from B5 to B6, the FACS M2-HK MFI falls from 218 MFI to 112 MFI.

First: B7
Second: B8
The FACS M2-HK MFI of the first is lower: 109 MFI for the first, 434 MFI for the second.

First: B9
Second: B10
The FACS M2-HK MFI of the first is lower: 43 MFI for the first, 131 MFI for the second.

Going from B11 to B12, the FACS M2-HK MFI falls from 967 MFI to 919 MFI.

Compared with B13, B14 is higher in FACS M2-HK MFI: 963 MFI for the first, 1670 MFI for the second.

Going from B15 to B16, the FACS M2-HK MFI falls from 1700 MFI to 110 MFI.

molecular target: recombinant soluble homotrimeric HA, A/northern shoveler/California/HKWF115/2007 (H6N1) (influenza A virus A/northern shoveler/California/HKWF115/2007 (H6N1)); experiment: microarray, trimeric HA, transfection supernatant; settings: remark: other sources report otherwise

Going from B17 to B18, the Trimeric HA Binding RLU rises from 996 RLU to 2100 RLU.

molecular target: recombinant soluble homotrimeric HA, A/duck/Yangzhou/02/2005 (H8N4) (influenza A virus A/duck/Yangzhou/02/2005 (H8N4)); experiment: microarray, trimeric HA, transfection supernatant; settings: remark: other sources report otherwise

Going from B19 to B17, the Trimeric HA Binding RLU rises from 9440 RLU to 9450 RLU.

Binder B18 has a Trimeric HA Binding RLU of 5740 RLU.

molecular target: recombinant soluble homotrimeric HA, A/chicken/Vietnam/NCVD-016/08 (H5N1) (influenza A virus A/chicken/Vietnam/NCVD-016/2008 (H5N1)); experiment: microarray, trimeric HA, transfection supernatant; settings: remark: other sources report otherwise

Compared with B19, B17 is lower in Trimeric HA Binding RLU: 3070 RLU for the first, 1600 RLU for the second.

In the case of B18, the Trimeric HA Binding RLU is reported as 1060 RLU.

molecular target: recombinant soluble homotrimeric HA of A/northern shoveler/California/HKWF115/2007 (H6N1) (Influenza A virus A/northern shoveler/California/HKWF115/2007 (H6N1)); experiment: HA microarray, BCC supernatant; settings: remark: other sources report otherwise

B18 showed a Trimeric HA Binding RLU of 314 RLU.

molecular target: recombinant soluble homotrimeric HA of A/duck/Yangzhou/02/2005 (H8N4) (Influenza A virus A/duck/Yangzhou/02/2005 (H8N4)); experiment: HA microarray, BCC supernatant; settings: remark: other sources report otherwise

For B18, the Trimeric HA Binding RLU was 184 RLU.

molecular target: recombinant soluble homotrimeric HA of A/Wisconsin/67/05 (H3N2) (Influenza A virus A/Wisconsin/67/2005 (H3N2)); experiment: HA microarray, BCC supernatant; settings: remark: other sources report otherwise

With B17 the Trimeric HA Binding RLU was 30900 RLU.

molecular target: recombinant soluble homotrimeric HA of A/Japan/305/57 (H2N2) (Influenza A virus A/Japan/305/1957 (H2N2)); experiment: HA microarray, BCC supernatant; settings: remark: other sources report otherwise

Compared with B19, B17 is higher in Trimeric HA Binding RLU: 187 RLU for the first, 387 RLU for the second.

B18 showed a Trimeric HA Binding RLU of 416 RLU.

molecular target: recombinant soluble homotrimeric HA of A/chicken/Vietnam/NCVD-016/08 (H5N1) (Influenza A virus A/chicken/Vietnam/NCVD-016/2008 (H5N1)); experiment: HA microarray, BCC supernatant; settings: remark: other sources report otherwise

Going from B19 to B17, the Trimeric HA Binding RLU rises from 272 RLU to 498 RLU.

Binder B18 has a Trimeric HA Binding RLU of 254 RLU.

molecular target: recombinant soluble homotrimeric HA of A/Solomon Islands/3/06 (H1N1) (Influenza A virus A/Solomon Islands/3/2006 (H1N1)); experiment: HA microarray, BCC supernatant; settings: remark: other sources report otherwise

First: B19
Second: B17
The Trimeric HA Binding RLU of the first is lower: 179 RLU for the first, 284 RLU for the second.

B18 gave a Trimeric HA Binding RLU of 283 RLU.

molecular target: recombinant soluble homotrimeric HA of A/California/4/09 (H1N1) (Influenza A virus A/California/04/2009 (H1N1)); experiment: HA microarray, BCC supernatant; settings: remark: other sources report otherwise

Going from B19 to B17, the Trimeric HA Binding RLU rises from 281 RLU to 338 RLU.

In the case of B18, the Trimeric HA Binding RLU is reported as 234 RLU.
